Laboratory results as given in IntAct's records for PubMed 19468300.

B1: Protein regulator of cytokinesis 1 (Homo sapiens), O43663 (parent)
chain: MRRSEVLAEESIVCLQKALNHLREIWELIGIPEDQRLQRTEVVKKHIKELLDMMIAEEESLKERLIKSISVCQKELNTLCSELHVEPFQEEGETTILQLEKDLRTQVELMRKQKKERKQELKLLQEQDQELCEILCMPHYDIDSASVPSLEELNQFRQHVTTLRETKASRREEFVSIKRQIILCMEALDHTPDTSFERDVVCEDEDAFCLSLENIATLQKLLRQLEMQKSQNEAVCEGLRTQIRELWDRLQIPEEEREAVATIMSGSKAKVRKALQLEVDRLEELKMQNMKKVIEAIRVELVQYWDQCFYSQEQRQAFAPFCAEDYTESLLQLHDAEIVRLKNYYEVHKELFEGVQKWEETWRLFLEFERKASDPNRFTNRGGNLLKEEKQRAKLQKMLPKLEEELKARIELWEQEHSKAFMVNGQKFMEYVAEQWEMHRLEKERAKQERQLKNKKQTETEMLYGSAPRTPSKRRGLAPNTPGKARKLNTTTMSNATANSSIRPIFGGTVYHSPVSRLPPSGSKPVAASTCSGKKTPRTGRHGANKENLELNGSILSGGYPGSAPLQRNFSINSVASTYSEFAKDPSLSDSSTVGLQRELSKASKSDATSGILNSTNIQS
B2: Protein ECT2 (Homo sapiens), Q9H8V3-4 (parent)
chain: MAENSVLTSTTGRTSLADSSIFDSKVTEISKENLLIGSTSYVEEEMPQIETRVILVQEAGKQEELIKALKDIKVGFVKMESVEEFEGLDSPEFENVFVVTDFQDSVFNDLYKADCRVIGPPVVLNCSQKGEPLPFSCRPLYCTSMMNLVLCFTGFRKKEELVRLVTLVHHMGGVIRKDFNSKVTHLVANCTQGEKFRVAVSLGTPIMKPEWIYKAWERRNEQDFYAAVDDFRNEFKVPPFQDCILSFLGFSDEEKTNMEEMTEMQGGKYLPLGDERCTHLVVEENIVKDLPFEPSKKLYVVKQEWFWGSIQMDARAGETMYLYEKANTPELKKSVSMLSLNTPNSNRKRRRLKETLAQLSRETDVSPFPPRKRPSAEHSLSIGSLLDISNTPESSINYGDTPKSCTKSSKSSTPVPSKQSARWQVAKELYQTESNYVNILATIIQLFQVPLEEEGQRGGPILAPEEIKTIFGSIPDIFDVHTKIKDDLEDLIVNWDESKSIGDIFLKYSKDLVKTYPPFVNFFEMSKETIIKCEKQKPRFHAFLKINQAKPECGRQSLVELLIRPVQRLPSVALLLNDLKKHTADENPDKSTLEKAIGSLKEVMTHINEDKRKTEAQKQIFDVVYEVDGCPANLLSSHRSLVQRVETISLGEHPCDRGEQVTLFLFNDCLEIARKRHKVIGTFRSPHGQTRPPASLKHIHLMPLSQIKKVLDIRETEDCHNAFALLVRPPTEQANVLLSFQMTSDELPKENWLKMLCRHVANTICKADAENLIYTADPESFEVNTKDMDSTLSRASRAIKKTSKKVTRAFSFSKTPKRALRRALMTSHGSVEGRSPSSNDKHVMSRLSSTSSLAGIPSPSLVSLPSFFERRSHTLSRSTTHLI
partner: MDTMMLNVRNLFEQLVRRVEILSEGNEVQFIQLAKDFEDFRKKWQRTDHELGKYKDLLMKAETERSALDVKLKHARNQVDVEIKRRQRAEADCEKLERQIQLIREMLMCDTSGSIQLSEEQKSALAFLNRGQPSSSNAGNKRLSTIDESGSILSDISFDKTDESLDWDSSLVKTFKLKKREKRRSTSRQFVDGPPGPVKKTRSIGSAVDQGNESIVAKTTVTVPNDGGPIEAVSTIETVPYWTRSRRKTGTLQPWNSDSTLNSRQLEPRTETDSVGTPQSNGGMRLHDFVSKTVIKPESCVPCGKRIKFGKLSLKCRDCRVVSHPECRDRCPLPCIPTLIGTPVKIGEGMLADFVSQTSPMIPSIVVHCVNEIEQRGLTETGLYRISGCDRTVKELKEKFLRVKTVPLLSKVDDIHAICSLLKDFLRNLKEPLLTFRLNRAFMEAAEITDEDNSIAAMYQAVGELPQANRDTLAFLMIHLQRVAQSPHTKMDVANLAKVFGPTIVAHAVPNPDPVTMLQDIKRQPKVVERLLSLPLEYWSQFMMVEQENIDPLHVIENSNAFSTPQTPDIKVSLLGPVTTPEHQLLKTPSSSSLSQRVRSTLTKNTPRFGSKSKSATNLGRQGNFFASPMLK
B3: Rac GTPase-activating protein 1 (Homo sapiens), Q9H0H5 (parent)
chain: B2 partner
partner: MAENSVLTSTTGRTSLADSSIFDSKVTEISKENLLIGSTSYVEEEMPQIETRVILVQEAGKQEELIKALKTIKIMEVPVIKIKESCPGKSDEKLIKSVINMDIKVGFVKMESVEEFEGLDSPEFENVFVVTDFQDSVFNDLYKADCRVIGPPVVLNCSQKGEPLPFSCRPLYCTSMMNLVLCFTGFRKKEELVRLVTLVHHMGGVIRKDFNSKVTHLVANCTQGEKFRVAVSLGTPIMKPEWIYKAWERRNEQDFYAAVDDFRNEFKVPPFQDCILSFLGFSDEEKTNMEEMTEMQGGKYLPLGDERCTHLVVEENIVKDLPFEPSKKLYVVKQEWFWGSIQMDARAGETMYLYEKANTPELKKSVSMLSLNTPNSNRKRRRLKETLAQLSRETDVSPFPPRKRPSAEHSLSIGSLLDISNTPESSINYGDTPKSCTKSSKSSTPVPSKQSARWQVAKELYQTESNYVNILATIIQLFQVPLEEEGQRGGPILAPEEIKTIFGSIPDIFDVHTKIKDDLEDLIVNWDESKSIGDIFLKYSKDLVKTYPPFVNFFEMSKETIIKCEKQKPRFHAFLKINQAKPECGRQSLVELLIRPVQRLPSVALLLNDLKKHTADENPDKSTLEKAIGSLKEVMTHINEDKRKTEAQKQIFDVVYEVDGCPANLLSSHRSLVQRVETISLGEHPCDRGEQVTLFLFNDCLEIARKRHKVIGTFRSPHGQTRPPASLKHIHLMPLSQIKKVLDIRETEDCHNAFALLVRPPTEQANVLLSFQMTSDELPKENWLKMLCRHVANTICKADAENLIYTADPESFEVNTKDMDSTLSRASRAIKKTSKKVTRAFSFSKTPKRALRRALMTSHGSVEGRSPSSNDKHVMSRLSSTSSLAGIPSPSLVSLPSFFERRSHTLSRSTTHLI

Variants of: B1
Settings: with plk1_human PLK1, P53350
Sequence of plk1_human PLK1, P53350 (P53350 whole entry): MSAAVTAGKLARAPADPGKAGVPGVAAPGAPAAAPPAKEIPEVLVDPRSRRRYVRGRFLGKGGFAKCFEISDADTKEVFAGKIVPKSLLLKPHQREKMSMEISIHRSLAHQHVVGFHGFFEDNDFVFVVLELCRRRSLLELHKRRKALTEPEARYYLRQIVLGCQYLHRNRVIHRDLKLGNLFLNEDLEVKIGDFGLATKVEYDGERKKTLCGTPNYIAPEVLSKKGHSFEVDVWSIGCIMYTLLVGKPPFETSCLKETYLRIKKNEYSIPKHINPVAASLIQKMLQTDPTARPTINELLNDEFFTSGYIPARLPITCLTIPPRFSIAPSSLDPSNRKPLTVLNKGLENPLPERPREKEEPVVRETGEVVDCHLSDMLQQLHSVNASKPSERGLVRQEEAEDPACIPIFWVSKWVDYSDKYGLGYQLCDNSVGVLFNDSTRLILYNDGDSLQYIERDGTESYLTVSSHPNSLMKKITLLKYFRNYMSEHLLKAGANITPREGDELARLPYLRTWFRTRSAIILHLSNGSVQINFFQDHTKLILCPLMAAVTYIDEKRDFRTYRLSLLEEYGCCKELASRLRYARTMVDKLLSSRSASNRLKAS

Row | Variant | effect of a mutation on the interaction
1 | S615A;T616A | disrupting interaction strength

Variants of: B2
Settings: with rgap1_human RACGAP1, Q9H0H5

Row | Variant | effect of a mutation on the interaction
2 | K195A | disrupting interaction
3 | T153A;K195A | disrupting interaction strength
4 | T153A | disrupting interaction strength

Variants of: B3
Settings: with ect2_human ECT2, Q9H8V3

Row | Variant | effect of a mutation on the interaction
5 | S149A;S157A;S164A;S170A | disrupting interaction
